Measured values taken from patent publication US20040223966A1 (Pfizer, published 2004).

Molecular target: T1, ActRIIB-Fc (human)
T1 construct: The leader is stated as aa 1-21; also called ActRIIB fusion polypeptide; recombinant ActRIIB-Fc
Experiment: ELISA: ActRIIB-Fc coated at 1 ug/ml, biotinylated ligand titrated, SA-HRP detection
Protocol: Biotinylated mature BMP-11 was prepared from BMP-11 latent complex in the same manner as described above. Recombinant ActRIIB-Fc, prepared as described in Examples 3 and 4, was coated on 96-well flat-bottom assay plates (Costar, NY, Cat. No. 3590) at 1 μg/ml in 0.2 M sodium carbonate buffer (pH 10) overnight at 4° C. Plates were then blocked with 1 mg/ml bovine serum albumin and washed following standard ELISA protocol. 100 μl aliquots of biotinylated GDF-8 or BMP-11 at various concentrations were added to the blocked ELISA plate, incubated for 1 hr and washed. The amount of bound GDF-8 or BMP-11 was detected by Streptavidin-Horseradish peroxidase (SA-HRP, BD PharMingen, San Diego, Calif., Cat. No. 13047E) followed by the addition of TMB (KPL, Gaithersburg, Md., Cat. No. 50-76-04). Colorimetric measurements were done at […] in a Molecular Devices microplate reader.

T1 sequence (chain, as listed by the source): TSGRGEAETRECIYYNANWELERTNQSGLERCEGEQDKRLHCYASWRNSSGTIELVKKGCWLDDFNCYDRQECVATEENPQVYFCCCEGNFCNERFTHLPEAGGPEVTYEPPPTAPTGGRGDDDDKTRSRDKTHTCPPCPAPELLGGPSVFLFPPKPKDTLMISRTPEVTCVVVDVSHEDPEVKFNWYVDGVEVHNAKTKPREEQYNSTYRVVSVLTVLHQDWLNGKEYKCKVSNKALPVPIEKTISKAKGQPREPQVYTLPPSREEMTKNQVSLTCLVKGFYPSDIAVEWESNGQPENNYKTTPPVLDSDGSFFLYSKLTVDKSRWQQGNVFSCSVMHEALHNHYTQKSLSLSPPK

B1: biotinylated mature BMP-11 (ligand, human, UniProt O95390 299-407, looked up)
chain: NLGLDCDEHSSESRCCRYPLTVDFEAFGWDWIIAPKRYKANYCSGQCEYMFMQKYPHTHLVQQANPRGSAGPCCTPTKMSPINMLYFNDKQQIIYGKIPGMVVDRCGCS
modifications: biotinylated with EZ-link Sulfo-NHS-Biotin, in the same manner as GDF-8; sites not stated
notes: mature; Active mature BMP-11 dimer purified from a cell line expressing recombinant human BMP-11; also called biotinylated BMP-11; GDF-11
B1 showed an EC50 of 0.04 µg/mL.
